The target in test [1] is T1, human PPARδ ligand binding domain (amino acids 139-441) (human, UniProt Q03181 139-441, Biotinylated (site not stated) in the FRET assays; unlabelled in fluorescence polarization and SPR.).
T1 construct: placed at the N-terminus here; Biotinylated for FRET; also called PPARδ LBD
T1 sequence: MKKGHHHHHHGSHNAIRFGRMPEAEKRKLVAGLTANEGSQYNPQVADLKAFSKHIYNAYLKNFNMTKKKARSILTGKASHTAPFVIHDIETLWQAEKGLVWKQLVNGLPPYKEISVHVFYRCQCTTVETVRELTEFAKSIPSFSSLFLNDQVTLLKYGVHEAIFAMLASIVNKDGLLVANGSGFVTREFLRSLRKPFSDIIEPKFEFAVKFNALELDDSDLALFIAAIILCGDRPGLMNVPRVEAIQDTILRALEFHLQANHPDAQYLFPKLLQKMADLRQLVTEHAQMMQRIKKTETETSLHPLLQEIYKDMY
The test is described as follows: fluorescence polarization, apparent affinity, with GW1929. A general note: In fluorescence polarisation assays a small probe gives low polarisation when free and higher when bound to something large.

Test [2] deals with T2, human PPARγ ligand binding domain (amino acids 206-477) (human, UniProt P37231-2 206-477).
T2 construct: range 206-477; placed at the N-terminus here; Biotinylated for FRET; also called PPARγ LBD
T2 sequence: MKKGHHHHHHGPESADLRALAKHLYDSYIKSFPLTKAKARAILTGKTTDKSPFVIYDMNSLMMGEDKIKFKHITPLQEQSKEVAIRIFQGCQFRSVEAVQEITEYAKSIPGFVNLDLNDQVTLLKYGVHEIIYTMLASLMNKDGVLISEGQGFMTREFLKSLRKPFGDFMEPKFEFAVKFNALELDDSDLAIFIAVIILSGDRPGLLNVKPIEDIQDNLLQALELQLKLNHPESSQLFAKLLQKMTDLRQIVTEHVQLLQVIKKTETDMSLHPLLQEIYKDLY
The description is as above.

Test [3] deals with T1, human PPARδ ligand binding domain …. In words: fluorescence polarization, apparent affinity, with rosiglitazone.
Test [4] deals with T2, human PPARγ ligand binding domain …. Described as above.
In test [5] the target is T1, human PPARδ ligand binding domain …. In words: fluorescence polarization, apparent affinity, no ligand.
Test [6] has as its target T2, human PPARγ ligand binding domain …. Described as above.
For test [7], the target named is T3, TRβ ligand binding domain (UniProt P10828 202-461, limits assumed).
T3 construct: also called Thyroid Receptor LBD; TRβ LBD
T3 sequence (looked up): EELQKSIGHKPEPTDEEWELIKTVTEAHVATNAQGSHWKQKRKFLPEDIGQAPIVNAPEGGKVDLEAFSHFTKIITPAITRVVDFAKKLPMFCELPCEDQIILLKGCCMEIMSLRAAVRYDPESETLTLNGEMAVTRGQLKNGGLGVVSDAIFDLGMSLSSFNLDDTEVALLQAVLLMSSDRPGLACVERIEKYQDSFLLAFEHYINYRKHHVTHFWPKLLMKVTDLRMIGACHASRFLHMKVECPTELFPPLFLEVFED
In words: fluorescence polarization, apparent affinity, with T3.

Test [8] concerns the target T3, TRβ ligand binding domain. In words: fluorescence polarization, apparent affinity, no ligand.
The target of test [9] is T4, human PPARα ligand binding domain (amino acids 192-468) (human, UniProt Q07869 192-468).
T4 construct: range 192-468; placed at the N-terminus here; Biotinylated for FRET; also called PPARα LBD
T4 sequence: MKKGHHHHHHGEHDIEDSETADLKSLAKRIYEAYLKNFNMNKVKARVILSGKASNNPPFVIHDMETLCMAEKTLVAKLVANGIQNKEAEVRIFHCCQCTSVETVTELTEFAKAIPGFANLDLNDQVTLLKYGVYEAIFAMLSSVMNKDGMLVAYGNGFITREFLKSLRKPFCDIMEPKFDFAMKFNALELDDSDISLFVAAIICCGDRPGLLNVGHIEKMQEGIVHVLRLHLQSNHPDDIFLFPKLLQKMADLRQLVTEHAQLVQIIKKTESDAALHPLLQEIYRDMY
In words: fluorescence polarization, 10 nM fluorescein peptide, LBD titrated, no ligand.

Test [10] concerns the target T1, human PPARδ ligand binding domain …. The test is described as above.
Test [11] has as its target T5, RXRα ligand binding domain (amino acids 225-462) (UniProt P19793 225-462).
T5 construct: range 225-462; Biotinylated for FRET; also called RXRα LBD; not shown: His-tag
T5 sequence (looked up): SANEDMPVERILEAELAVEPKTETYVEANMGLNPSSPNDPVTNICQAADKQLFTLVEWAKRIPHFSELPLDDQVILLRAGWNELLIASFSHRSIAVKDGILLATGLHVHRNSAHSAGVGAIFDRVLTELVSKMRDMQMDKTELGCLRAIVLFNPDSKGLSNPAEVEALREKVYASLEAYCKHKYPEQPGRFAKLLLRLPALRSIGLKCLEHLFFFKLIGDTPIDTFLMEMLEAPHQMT
The test is described as above.

The target of test [12] is T2, human PPARγ ligand binding domain …. The test is described as above.
For test [13], the target named is T6, ERβ ligand binding domain (amino acids 257-530) (UniProt Q92731 257-530).
T6 construct: range 257-530; not shown: His-tag
T6 sequence (Q92731 257-530 limits assumed): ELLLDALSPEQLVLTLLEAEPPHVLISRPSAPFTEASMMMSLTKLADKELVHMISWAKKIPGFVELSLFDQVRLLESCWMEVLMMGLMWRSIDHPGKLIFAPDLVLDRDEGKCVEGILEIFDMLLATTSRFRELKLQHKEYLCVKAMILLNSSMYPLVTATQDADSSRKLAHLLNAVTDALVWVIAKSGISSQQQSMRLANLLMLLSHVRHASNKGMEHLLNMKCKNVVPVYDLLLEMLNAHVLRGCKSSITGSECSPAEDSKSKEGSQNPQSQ
The test is described as above.

Test [14] addresses T7, RARα ligand binding domain (amino acids 146-432) (UniProt P10276 146-432).
T7 construct: range 146-432; not shown: His-tag
T7 sequence (looked up): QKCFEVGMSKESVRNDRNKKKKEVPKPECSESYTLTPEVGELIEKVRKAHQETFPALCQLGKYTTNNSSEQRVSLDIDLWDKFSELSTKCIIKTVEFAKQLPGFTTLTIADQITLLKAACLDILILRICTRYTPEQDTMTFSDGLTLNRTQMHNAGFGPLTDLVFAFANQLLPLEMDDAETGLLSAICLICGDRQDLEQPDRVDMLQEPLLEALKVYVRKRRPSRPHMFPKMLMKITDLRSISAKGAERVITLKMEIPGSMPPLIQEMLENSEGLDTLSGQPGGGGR
The description is as above.

Test [15] addresses T3, TRβ ligand binding domain. Described as above.
For test [16], the target named is T8, VP16-human PPARγ2 (full length) (human, UniProt P06492 410-490; P37231 1-505).
T8 construct: also called VP16 full length PPARγ
In words: mammalian two-hybrid in CV-1 cells.

The target of test [17] is T9, VP16-human PPARα (full length) (human, UniProt P06492 410-490; Q07869 1-468).
T9 construct: also called VP16 full length PPARα
The test is described as follows: mammalian two-hybrid in CV-1 cells.

Test [18] has as its target T10, VP16-human PPARδ (full length) (human, UniProt P06492 410-490; Q03181 1-441).
T10 construct: also called VP16 full length PPARδ
The test is described as follows: mammalian two-hybrid in CV-1 cells.

No end group written: not given here. *: point of attachment. fluorescein = fluorescein: fluorescein label attached at the N-terminus of the peptide; Biotin = O=C1N[C@H]2[C@H](CS[C@H]2CCCCC(=O)*)N1

On to Biotin-GHGEDFSKVSQNPILTSLLQITGNG (not fully specified; printed as biotin-GHGEDFSKVSQNPILTSLLQITGNG, also called TRAP220 575-599) [TRAP220 peptide (amino acids 575-599)], for which the Kd in test [1] is 3400 nM; in test [2], 0.79 µM; in [3] it was 1.8 µM; in [4], 1.5 µM; in test [5] it was 2300 nM; in test [6] it was 3900 nM.

B1: Fluoroscein-NCOR ID-C peptide (NCoR amino acids 2251-2275) (peptide)
peptide: fluorescein-GHSFADPASNLGLEDIIRKALMGSF
notes: also called NCOR peptide; NCoR 2251-2275
For the molecule B1, the Kd turned out to be 440 nM in test [1]; 6.7 µM in test [2]; 5 µM in [3]; 4.7 µM in [4]; 6.2 µM in [7]; 1200 nM in test [6]. Besides, the Kd in test [8] came out at 720 nM; in [9], 6.1 µM; in test [10], 5.7 µM; in test [11], 25 µM; in test [12], 1300 nM; in test [13] it was 37 µM. Besides, the Kd in test [14] worked out at 2000 nM; in [15], 1300 nM.

B2: GAL4-NcoR (2012-2103) (other)
chain: MKLLSSIEQACDICRLKKLKCSKEKPKCAKCLKNNWECRYSPKTKRSPLTRAHLTEVESRLERLEQLFLLIFPREDLDMILKMDSLQDIKALLTGLFVQDNVNKDAVTDRLASVETDMPLTLRQHRISATSSSEESSNKGQRQLTVSGPLHHYRPQQESPSPQQQLPPSSQAEGMGQVPRTHRLITLADHICQIITQDFARNQVSSQTPQQPPTSTFQNSPSALVSTPVRTKTSNRYSP
notes: range 1-147;range 2012-2103; also called NCoR fragment (2012-2103) that contained NCoR ID-N
With B2, the binding result in test [16], in test [17] and in test [18] was “no binding” in each case.
